Test results as given in patent US20240117065A1.

Legend:
Assay in all cases: cell-based or functional assay
[1] = molecular target: Catalytically active human CD73 (biochemical assay) (human) (UniProt P21589)
[2] = molecular target: Membrane-bound CD73 in MDA-MB-231 cells (UniProt P21589)
[3] = molecular target: Membrane-bound human CD73 (internalisation assay) (human) (UniProt P21589)
[4] = molecular target: Soluble CD73 in MDA-MB-231 cells (UniProt P21589)
[5] = molecular target: Membrane-bound mouse CD73 (internalisation assay) (mouse) (UniProt Q61503)
[6] = molecular target: Catalytically active mouse CD73 (biochemical assay) (mouse) (UniProt Q61503)

| Substance | % Inhibition of CD73 (biochemical assay), Human [1] | % Inhibition of CD73 (cell-based assay), Membrane-bound [2] | Max % Act Mean [2] | Max % Act n = 1 [2] | Max % Act n = 2 [2] | % internalisation of membrane-bound CD73, Human [3] | Human % Inh, n = 1 (receptor internalisation assay) [3] | Human % Inh, n = 2 (receptor internalisation assay) [3] | % Inhibition of CD73 (cell-based assay), soluble [4] | % internalisation of membrane-bound CD73, Mouse [5] | Murine % Inh, n = 1 (receptor internalisation assay) [5] | Murine % Inh, n = 2 (receptor internalisation assay) [5] | % Inhibition of CD73 (biochemical assay), Mouse [6] |
| --- | --- | --- | --- | --- | --- | --- | --- | --- | --- | --- | --- | --- | --- |
| BMS-986179 (antibody) | 20% | 29.9% | 31% | 30% | 32% | 61.7% | 8.99% | 61.7% | 10.4% | 7.14% | 5.18% | 9.09% | 21.3% |
| IPH53 (antibody) | 91.3% | 68.2% | 68.8% | 69.5% | 68% | 47.5% | 49% | 46% | 77.1% | 6.46% | 5.18% | 7.74% | 17.8% |
| IgG1K (antibody) | – | – | 3.5% | – | 3.5% | – | – | – | – | – | – | – | – |
| MEDI9447 (antibody) | 42.3% | 42% | 41.8% | 35.5% | 48% | 58% | 49.9% | 66.2% | 40% | 70.9% | 62.5% | 79.4% | 49.1% |
